The source of these data is patent publication US20130225434A1 (BOARD OF TRUSTEES OF THE UNIVERSITY OF ILLINOIS, published 2013).

T1: Rad9-pT peptide with SGS linker (SGS-SLEVpTEADATFYAKK) (yeast, SMILES …)
T1 construct: also called cognate pT peptide; Rad-pT
T1 peptide: Biotin-SGSSLEV[pT]EADATFYAKK-NH2

T2: WT FHA1 domain of S. cerevisiae Rad53, phage-displayed (protein III fusion on bacteriophage M13) (Saccharomyces cerevisiae; bacteriophage …, UniProt P22216 1-170)
T2 construct: not shown: minor coat protein III (pIII, gene III product) of bacteriophage M13
T2 sequence: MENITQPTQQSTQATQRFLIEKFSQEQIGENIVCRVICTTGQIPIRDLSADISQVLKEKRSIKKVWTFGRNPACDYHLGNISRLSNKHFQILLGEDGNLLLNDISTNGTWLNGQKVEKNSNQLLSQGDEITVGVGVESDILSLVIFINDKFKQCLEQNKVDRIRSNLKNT

T3: BRCT-pS (SMILES …)
T3 construct: also called Biotin-BRCT-pS
T3 peptide: Biotin-SGSAYDI[pS]QVFPFAKKK-NH2

B1: T (designed binder)
FHA1 domain displayed on M13 protein III: T2 sequence with C34T, C38S, C154S
notes: also called S34T
B2: P (designed binder)
FHA1 domain displayed on M13 protein III: T2 sequence with C34P, C38S, C154S
notes: also called S34P
B3: D (designed binder)
FHA1 domain displayed on M13 protein III: T2 sequence with C34D, C38S, C154S
notes: also called S34D
B4: R (designed binder)
FHA1 domain displayed on M13 protein III: T2 sequence with C34R, C38S, C154S
notes: also called S34R
B5: G (designed binder)
FHA1 domain displayed on M13 protein III: T2 sequence with C34G, C38S, C154S
notes: also called S34G
B6: K (designed binder)
FHA1 domain displayed on M13 protein III: T2 sequence with C34K, C38S, C154S
notes: also called S34K
B7: H (designed binder)
FHA1 domain displayed on M13 protein III: T2 sequence with C34H, C38S, C154S
notes: also called S34H
B8: E (designed binder)
FHA1 domain displayed on M13 protein III: T2 sequence with C34E, C38S, C154S
notes: also called S34E
B9: C (designed binder)
FHA1 domain displayed on M13 protein III: T2 sequence with C38S, C154S
notes: also called S34C
B10: Q (designed binder)
FHA1 domain displayed on M13 protein III: T2 sequence with C34Q, C38S, C154S
notes: also called S34Q
B11: N (designed binder)
FHA1 domain displayed on M13 protein III: T2 sequence with C34N, C38S, C154S
notes: also called S34N
B12: Rad9-pS (peptide)
peptide: Biotin-SGSSLEV[pS]EADATFYAKK-NH2
SMILES: CC(C)C[C@H](NC(=O)[C@H](CO)NC(=O)[C@H](CO)NC(=O)CNC(=O)[C@H](CO)NC(=O)CCCC[C@@H]1SC[C@@H]2NC(=O)N[C@@H]21)C(=O)N[C@@H](CCC(=O)O)C(=O)N[C@H](C(=O)N[C@@H](COP(=O)(O)O)C(=O)N[C@@H](CCC(=O)O)C(=O)N[C@@H](C)C(=O)N[C@@H](CC(=O)O)C(=O)N[C@@H](C)C(=O)N[C@H](C(=O)N[C@@H](Cc1ccccc1)C(=O)N[C@@H](Cc1ccc(O)cc1)C(=O)N[C@@H](C)C(=O)N[C@@H](CCCCN)C(=O)N[C@@H](CCCCN)C(N)=O)[C@@H](C)O)C(C)C
B13: Plk1-pT (peptide)
peptide: Biotin-SGSAGPMQS[pT]PLNGAKK-NH2
SMILES: CSCC[C@H](NC(=O)[C@@H]1CCCN1C(=O)CNC(=O)[C@H](C)NC(=O)[C@H](CO)NC(=O)CNC(=O)[C@H](CO)NC(=O)CCCC[C@@H]1SC[C@@H]2NC(=O)N[C@@H]21)C(=O)N[C@@H](CCC(N)=O)C(=O)N[C@@H](CO)C(=O)N[C@H](C(=O)N1CCC[C@H]1C(=O)N[C@@H](CC(C)C)C(=O)N[C@@H](CC(N)=O)C(=O)NCC(=O)N[C@@H](C)C(=O)N[C@@H](CCCCN)C(=O)N[C@@H](CCCCN)C(N)=O)[C@@H](C)OP(=O)(O)O
B14: Rad9-pY (peptide)
peptide: Biotin-SGSSLEV[pY]EADATFYAKK-NH2
SMILES: CC(C)C[C@H](NC(=O)[C@H](CO)NC(=O)[C@H](CO)NC(=O)CNC(=O)[C@H](CO)NC(=O)CCCC[C@@H]1SC[C@@H]2NC(=O)N[C@@H]21)C(=O)N[C@@H](CCC(=O)O)C(=O)N[C@H](C(=O)N[C@@H](Cc1ccc(OP(=O)(O)O)cc1)C(=O)N[C@@H](CCC(=O)O)C(=O)N[C@@H](C)C(=O)N[C@@H](CC(=O)O)C(=O)N[C@@H](C)C(=O)N[C@H](C(=O)N[C@@H](Cc1ccccc1)C(=O)N[C@@H](Cc1ccc(O)cc1)C(=O)N[C@@H](C)C(=O)N[C@@H](CCCCN)C(=O)N[C@@H](CCCCN)C(N)=O)[C@@H](C)O)C(C)C
B15: C12 variant of the FHA1 domain, phage-displayed (designed binder, not shown: small tags and cut ends)
chain: T2 sequence with C34S, C38S, W66R, C154S
notes: From the library built on the 3C-3S template
B16: A10 variant of the FHA1 domain, phage-displayed (designed binder, not shown: small tags and cut ends)
chain: T2 sequence with Q25H, C34S, C38S, N121Y, S142R, C154S
notes: as for B15
B17: G9 variant of the FHA1 domain, phage-displayed (designed binder, not shown: large carriers; small tags and cut ends)
chain: T2 sequence with Q13R, C34S, C38S, I104V, N121Y, C154S, R164S
notes: as for B15
B18: A7 variant of the FHA1 domain, phage-displayed (designed binder, not shown: small tags and cut ends)
chain: T2 sequence with C34S, C38S, N121Y, C154S
notes: as for B15
B19: 3C-3S variant of the FHA1 domain, GST fusion (other)
chain: T2 sequence with C34S, C38S, C154S
notes: Cell lysate used in the ELISA; not shown: The N-terminal GST of the pGEX-2T vector and the vector junction residues
B20: 4C-4S variant of the FHA1 domain, GST fusion (other)
chain: T2 sequence with C34S, C38S, C74S, C154S
notes: as for B19
B21: D2 variant of the FHA1 domain, GST fusion (designed binder)
chain: T2 sequence with C34F, C38S, C154S
notes: as for B19

Positions count from the first letter of the chain named. Names and notes keep the numbering of the source. Square brackets hold non-standard residues; d marks the D form. * marks the point of attachment. Biotin = O=C1N[C@H]2[C@H](CS[C@H]2CCCCC(=O)*)N1; pY = N[C@@H](Cc1ccc(OP(=O)(O)O)cc1)C(=O)O; pT = C[C@@H](OP(=O)(O)O)[C@H](N)C(=O)O; pS = N[C@@H](COP(=O)(O)O)C(=O)O

The first assay deals with T1, Rad9-pT peptide with SGS linker …. The assay can be described thus: phage ELISA on immobilized Rad9-pT, phage normalised to the Flag epitope; anti-M13-HRP, A405. The source says:
Through Kunkel mutagenesis (Yaffe (2002) Nat Rev Mol Cell Bol 3, 177-86), the amino acid residue at position 34 in the β1 strand of the D2 FHA 1 domain was replaced (from the naturally-occurring V) one at a time with each of the other naturally occurring amino acids and binding to the immobilized Rad9-pT peptide was monitored by phage ELISA. Phage binding was detected using anti-M13 antibody conjugated to Horse Radish Peroxidase (HRP). […] All the variants display an N-terminal Flag peptide and the amount of phage particles used for each variant in this experiment has been normalized for this epitope.
To amplify the phage particles displaying the recombinant FHA1 variants, TG1 bacterial cells (5 mL; Stratagene) harboring the phagemid DNA were infected at mid-log (OD₆₀₀ₙₘ=0.5-0.6) with M13K07 helper phage (New England Biolabs) at a multiplicity of infection (MOI) of 20 for 1 h at 37° C. at 150 rpm. Infected cells were centrifuged, and the pellet was resuspended in fresh Luria Bertani medium (LB: 10 g Tryptone, 5 g Yeast extract, and 10 g NaCl per liter) supplemented with 50 μg/mL carbenicillin and 50 μg/ml kanamycin, and phage were amplified overnight at 30° C. at 250 rpm. All of the phage ELISA steps were performed at room temperature. Biotinylated peptides (100 μL, 5 μg/mL) were immobilized on Nunc MaxiSorp flat-bottom 96 well plates (Thermo Fisher Scientific) via NeutrAvidin™ Biotin binding protein (100 μL, 10 μg/mL; Thermo Fisher Scientific) and blocked with 2% skim milk in 1×PBS (200 μL per well).
For orientation: In an ELISA, binding on a coated surface is turned into a signal by an enzyme label.
Regarding B1, the binding result was “no binding”.
On the same count and under the same terms, then B2, with “no binding”; and B3, with “no binding”.
The same measure, in the same setting: the value for B4 was “no binding”.
On the same count and under the same terms, then B5, with “no binding”; and B6, with “no binding”.
B7: the binding result is listed as “no binding”.
As to B8, the binding result is “no binding”.
Same read-out and setting: then B9, with “no binding”.
On to B10, for which the binding result is given as “no binding”.
With B11, the binding result is recorded as “no binding”.

The target of the next assay is T2, WT FHA1 domain of S. cerevisiae Rad53, …. The assay can be described thus: phage ELISA; biotinylated peptide on Neutravidin; anti-M13-HRP, A405 [a]. The source says: Binding of phage particles was detected using anti-M13 antibody conjugated to HRP. FIG. 4(b) is a graph of the results of ELISA experiments of GST fusions of the WT FHA1 domain and three of its variants, 3C-3S, 4C-4S, and D2, that bound specifically to the cognate pT peptide (Rad9-pT; shown as solid histograms) immobilized on plastic microtiter plate wells via Neutravidin. Binding was detected using anti-GST antibody conjugated to HRP. The peptide sequences for Rad9-pT, Rad9-T, Rad9-pS, Rad9-pY, Plk1-pT and BRCT-pS are SGSSLEVp[…] (SEQ ID NO: 1), […] (SEQ ID NO: 2), SGSSLEVp[…] (SEQ ID NO: 3), SGSSLEVp[…] (SEQ ID NO: 4), […]p[…] (SEQ ID NO: 5) and SGSAYDIp[…] (SEQ ID NO: 6), respectively. The peptide sequence for the WT FHA1 domain from S. cerevisiae Rad53 protein kinase includes […] (SEQ ID NO:7), which includes residues 1-170 of S. cerevisiae Rad53 (SEQ ID NO:8) (Liao et al. (2000) J. Mol. Biol 304, 941-51; Durocher et al. (1999) Mol Cell 4). […] The β-strands are labeled from 1 to 11 in the WT FHA1 domain structure and the N- and C-termini are noted.
Consider B12, for which the binding result is “no binding”.
The same measure, in the same setting: then B13, with “no binding”; and B14, with “no binding”.

For another assay, the target named is T3, BRCT-pS. Description: phage ELISA; biotinylated peptide on Neutravidin, A405. On the procedure: FIG. 9A is a photograph of 96-well plates containing phage supernatants from 96 individual clones, which were isolated after three rounds of selection, heated (50° C.), cooled, and added to microtiter plate wells coated with the phosphopeptide ligand. Binding of phage particles in the wells was monitored with an anti-M13 antibody conjugated to HRP. FIG. 9B is a graph showing the ratio of the ELISA signals for individual phage clones generated with wells contained with the target protein compared to a negative control protein (background).
Phage particles produced from 96 clones isolated after round #3, were heated at 50° C. for 3 hr and cooled to RT. The phage supernatants were then incubated with both the target peptide (500 ng/well) immobilized on NeutrAvidin (1 μg/well) coated plate wells and an unrelated target (background). Binding phage clones were detected using anti-M13 antibody conjugated to HRP (GE Healthcare). The green, colored product of the enzymatic reaction in the microtiter plate wells was measured at 405 nm using the FLUOstar OPTIMA plate reader (BMG Labtech). […] In some cases, the signal over background ratio ranged from 3 to 20 for clones (FIG. 9B).
Turning to B15, the binding result is “no binding”.
On the same count and under the same terms, the value for B16 was “no binding”; that for B17 was “no binding”; that for B18 was “no binding”.

The target of another assay is T3, BRCT-pS. The assay can be described thus: ELISA with GST fusion (cell lysate); biotinylated peptide on Neutravidin; anti-GST-HRP, A405 [b].
As for B19, the binding result was “no binding”.
The same measure, in the same setting: the value for B20 was “no binding”; that for B21 was “no binding”.
